{"source": "patent US20250027068", "proteins": {"B1": {"name": "PRT-70 (protein)", "chain": "MANQEIRYSEVTPYHVTSVWTKGVTPPANFTQGEDVFHAPYVANQGWYDITKTFNGKDDLLCGAATAGNMLHWWFDQNKEQIKRYLEEHPEKQKINFNGEQMFDVKEAIDTKNHQLDSKLFEYFKEKAFPYLSTKHLGVFPDHVIDMFINGYRLSLTNHGPTPVKEGSKDPRGGIFDAVFTRGDQSKLLTSRHDFKEKNLKEISDLIKKELTEGKALGLSHTYANVRINHVINLWGADFDSNGNLKAIYVTDSDSNASIGMKKYFVGVNSAGKVAISAKEIKEDNIGAQVLGLFTLSTGQDSWNQTN"}, "B2": {"name": "PRT-5 (protein)", "chain": "MANQEIRYSEVTPYHVTSVWTKGVTPPANFTQGEDVFHAPYVANQGWYDITKTFNGKDDLLCGAATAGNMLHWWFDQNKDQIERYLKKHPEKQKINFNGEQMFDVKEAIDTKNSQLDSKLFEYFKEKAFPYLSTKHLGVFPDHVIDMFINGYRLSLTNHGPTPVKEGSKDPRGGIFDAVFTRGDQSKLLTSRHDFKEKNLKEISDLIKKELTEGKALGLSHTYANVRINHVINLWGADFDSNGNLEAIYVTDSDSNASIGMKKYFVGVNSAGKVAISAKEIKEDNIGAQVLGLFTLSTGQDIWNQTN"}, "B3": {"name": "PRT-6 (protein)", "chain": "MANQEIRYSEVTPYHVTSVWTKGVTPPANFTQGEDVFHAPYVANQGWYDITKTFNGKDDLLCGAATAGNMLHWWFDQNKEQIERYLKEHPEKQKINFNGEQMFDVKEAIDTKNSQLDSKLFEYFKEKAFPYLSTKHLGVFPDHVIDMFINGYRLSLTNHGPTPVKEGSKDPRGGIFDAVFTRGDQSKLLTSRHDFKEKNLKEISDLIKKELTEGKALGLSHTYANVRINHVINLWGADFDSNGNLKAIYVTDSDSNASIGMKKYFVGVNSAGKVAISAKEIEGDNIGAQVLGLFTLSTGQDIWNQTN"}, "B4": {"name": "PRT-79 (protein)", "chain": "MANQEIRYSEVTPKTITSVWTKGVTPPAKFTQNEDVFHAPYVANQGWYDITKTFNGKDDLLCGAATAGNMLHWWFDQNKEQIEAYLKKHPEKQKIMFGDQELLDVRKVINTKDDQTNSELFNYFKDKAFPNLSARRLGVMPDLVLDMFINGYRLNVGKTQTTDVNRTYQDKDPRGGIFDAVFTRGDQSKLLTSRHDFKEKNLKEISDLIKQELTEGKALGLSHTYANVRINHVINLWGADFDSEGNLEAIYVTDSDSNASIGMKKYFVGVNSAGKVAISAKEIEEDNIGAQVLGLFTLSTGQDIWEQTN"}, "B5": {"name": "PRT-81 (protein)", "chain": "MANQEIRYSEVTPSHVTSVWTKGVTPPADFTQGEDVFHAPYVANQGWYDITKTFNGKDNLLCGAATAGNMLHWWFDQNKEQIENYLKKHPEKQKIMFGDQELLDVRKVINTKDSQTNSALFNYFRDKAFPNLSARRLGVMPDLVLDMFINGYYLNLTKTQTTDVNRTYQTKDKRGGIFDAVFTRGDQSKLLTSRHDFKEKTLKEISDLIKQELTEGKALGLSHTYANVRINHVINLWGADFDSNGNLKAIYVTDSDSNASIGMKKYFVGVNSAGKVAISAKEITEDNIGAQVLGLFTLSTGKDQWNQTN"}, "B6": {"name": "PRT-76 (protein)", "chain": "MANQEIRYSEVTPYHITSVWTKGVTPPAKFTQGEDVFHAPYVANQGWYDITKTFNGKDDLLCGAATAGNMLHWWFDQNKEEIEAYLKKHPEKQKIMFGDQELLDVRKVINTKDSQTNSALFNYFKDKAFPNLSARRLGVMPDLVLDMFINGYYLNVYKTQTTDVNRTYQTKDRRGGIFDAVFTRGDQSKLLTERHDFKEKTLKEISDLIKQELTEGKALGLSHTYANVRINHVINLWGADFDSNGNLEAIYVTDSDSNASIGMKKYFVGVNSAGKVAISAKEIKEDNIGAQVLGLFTLSTGQDIWNQTN"}, "B7": {"name": "PRT-71 (protein)", "chain": "MANQEIRYSEVTPYHVTSVWTKGVTPPANFTQGEDVFHAPYVANQGWYDITKTFNGKDDLLCGAATAGNMLHWWFDQNKEEIEAYLKKHPEKQKIMFGDQELLDVRKVINTKGSQTNSELFNYFRDKAFPGLSARRLGVMPDLVLDMFINGYYLNVYKTQTTDVNRTYQEKDKRGGIFDAVFTRGDQSKLLTSRHDFKEKNLKEISDLIKKELTEGKALGLSHTYANVRINHVINLWGADFDSNGNLKAIYVTDSDSNASIGMKKYFVGVNSAGKVAISAKEIKEDNIGAQVLGLFTLSTGQDIWNQTN"}, "B8": {"name": "PRT-78 (protein)", "chain": "MANQEIRYSEETPYHVTSVWTKGVTPPADFTQGEDVFHAPYVANQGWYDITKTFNGKDDLLCGAATAGNMLHWWFDQNKEYIEAYLKKHPEKQKIMFGDQELLDVRKAINTKGSQKNSELFNYFRDKAFPNLSARRLGVMPDLVLDMFINGYYLNVTKTQTTDVNRTYQEKDKRGGIFDAVFTRGDQSKLLTSRHDFKEKGLKEISDLIKQELTEGKALGLSHTYANVRINHVINLWGADFDSDGNLKAIYVTDSDSNASIGMKKYFVGVNSAGKVAISAKEIKEDNIGAQVLGLFTLSTGQDIWNQTN"}, "B9": {"name": "PRT-77 (protein)", "chain": "MANQEIRYSEVTPYHVTSVWTKGVTPPTNFTQGEDVFHAPYVANQGWYDITKTFNGKDNLLCGAATAGNMLHWWFDQNKEEIERYLKKHPEKQKIMFGDQELLDVRKVINTKDDQKNSELFNYFRDKAFPGLSARRLGVMPDLVLDMFINGYYLNVGKTQTTDVNRTYQEKDKRGGIFDAVFTRGDQSKLLTSRHDFKEKNLKEISDLIKQELTEGKALGLSHTYANVRINHVINLWGADFDSNGNLEAIYVTDSDSNASIGMKKYFVGVNSAGKVAISAKEIEEDNIGAQVLGLFTLSTGQDIWNQTN"}, "B10": {"name": "PRT-73 (protein)", "chain": "MANQEIRYSEVTPYHVTSVWTKGVTPPANFTQGEDVFHAPYVANQGWYDITKTFNGKDDLLCGAATAGNMLHWWFDQNKEKIEAYLKKHPEKQKIMFGDQELLDVRKVINTKDDQTNSELFNYFRDKAFPGLSARRLGVMPDLVLDMFINGYYLNVTKTQTTDVNRTYQEKDRRGGIFDAVFTRGDQSKLLTSRHDFKEKNLKEISDLIKKELTEGKALGLSHTYANVRINHVINLWGADFDSNGNLKAIYVTDSDSNASIGMKKYFVGVNSAGKVAISAKEIKEDNIGAQVLGLFTLSTGQDSWNQTN"}, "B11": {"name": "PRT-75 (protein)", "chain": "MANQEIRYSEVTPYHVTSVWTKGVTPPAKFTQGEDVFHAPYVANQGWYDITKTFNGKDDLLCGAATAGNMLHWWFDQNKEKIEAYLKKHPEKQKIMFGDQELLDVRKVINTKDDQTNSELFNYFRDKAFPGLSARRLGVMPDLVLDMFINGYRLNVTKTQTTDVNETYQTKDKRGGIFDAVFTRGDQSKLLTSRHDFKEKNLKEISDLIKKELTEGKALGLSHTYANVRINHVINLWGADFDSNGNLKAIYVTDSDSNASIGMKKYFVGVNSAGKVAISAKEIKDDNIGAQVLGLFTLSTGQDIWNQTN"}, "B12": {"name": "PRT-74 (protein)", "chain": "MANQEIRYSEVTPSHVTSVWTKGVTPPANFTQGEDVFHAPYVANQGWYDITKTFNGKDNLLCGAATAGNMLHWWFDQNKEEIEAYLKKHPEKQKIMFGDQELLDVRKVINTKDSQTNSELFNYFRDKAFPGLSARRLGVMPDLVLDMFINGYYLNVYKTQTTDVNRTYQEKDRRGGIFDAVFTRGDQSKLLTSRHDFKEKTLKEISDLIKKELTEGKALGLSHTYANVRINHVINLWGADFDSNGNLKAIYVTDSDSNASIGMKKYFVGVNSAGKVAISAKEIKEDNIGAQVLGLFTLSTGQDIWNQTN"}, "B13": {"name": "PRT-72 (protein)", "chain": "MANQEIRYSEVTPYHVTSVWTKGVTPPAKFTQGEDVFHAPYVANQGWYDITKTFNGKDDLLCGAATAGNMLHWWFDQNKEYIEAYLKKHPEKQKIMFGDQELLDVRKVINTKGDQTNSELFNYFRDKAFPYLSARRLGVMPDLVLDMFINGYYLNVTKTQTTDVNRTYQEKDRRGGIFDAVFTRGDQSKLLTSRHDFKEKNLKEISDLIKKELTEGKALGLSHTYANVRINHVINLWGADFDSNGNLKAIYVTDSDSNASIGMKKYFVGVNSAGKVAISAKEIKEDNIGAQVLGLFTLSTGQDIWNQTN"}, "B14": {"name": "PRT-80 (protein)", "chain": "MANQEIRYSEVTPKHITSVWTKGVTPPTQFIQGEDVFHAPYKANQGWYDITKTFNGKDDLLCGAATAGNMLHWWFDQNKEEIEAYLKKHPEKQKIMFGDQELLDVRKAINTKDDQTNSELFNYFRDKAFPNLSARRLGVMPDHVLDMFINGYYLNVNKTQTTDVNRTYQEKDPRGGIFDAVFTRGDQSKLLTSRHDFKEKTLKEISDLIKQELTEGKALGLSHTYANVRINHVINLWGADFDSNGNLKAIYVTDSDSDASIGMKKYFVGVNSAGKVAISAKEIKGDNIGAQVLGLFTLSTGQDIWNQTN"}}}
{"molecular_target": "pooled human IgG", "units": {"Enzyme Activity Endpoint Assay (purified): Fab′2": "ng/µL", "Enzyme Activity Endpoint Assay (purified): Fc": "ng/µL", "Enzyme Activity Endpoint Assay (purified): IgG": "ng/µL", "Enzyme Activity Endpoint Assay (purified): scIgG": "ng/µL", "Enzyme Activity Endpoint Assay: Fab′2": "ng/µL", "Enzyme Activity Endpoint Assay: Fc": "ng/µL", "Enzyme Activity Endpoint Assay: IgG": "ng/µL", "Enzyme Activity Endpoint Assay: scIgG": "ng/µL"}}
{"protein": "B1", "Enzyme Activity Endpoint Assay (purified): Fab′2": 47, "Enzyme Activity Endpoint Assay (purified): Fc": 124, "Enzyme Activity Endpoint Assay (purified): IgG": 14, "Enzyme Activity Endpoint Assay (purified): scIgG": 14}
{"protein": "B2", "Enzyme Activity Endpoint Assay: Fab′2": 34, "Enzyme Activity Endpoint Assay: Fc": 117, "Enzyme Activity Endpoint Assay: IgG": 18, "Enzyme Activity Endpoint Assay: scIgG": 34}
{"protein": "B3", "Enzyme Activity Endpoint Assay: Fab′2": 49, "Enzyme Activity Endpoint Assay: Fc": 129, "Enzyme Activity Endpoint Assay: IgG": 16, "Enzyme Activity Endpoint Assay: scIgG": 15}
{"protein": "B4", "Enzyme Activity Endpoint Assay (purified): Fab′2": 0, "Enzyme Activity Endpoint Assay (purified): Fc": 44, "Enzyme Activity Endpoint Assay (purified): IgG": 72, "Enzyme Activity Endpoint Assay (purified): scIgG": 38}
{"protein": "B5", "Enzyme Activity Endpoint Assay (purified): Fab′2": 14, "Enzyme Activity Endpoint Assay (purified): Fc": 67, "Enzyme Activity Endpoint Assay (purified): IgG": 30, "Enzyme Activity Endpoint Assay (purified): scIgG": 56}
{"protein": "B6", "Enzyme Activity Endpoint Assay (purified): Fab′2": 20, "Enzyme Activity Endpoint Assay (purified): Fc": 78, "Enzyme Activity Endpoint Assay (purified): IgG": 37, "Enzyme Activity Endpoint Assay (purified): scIgG": 38}
{"protein": "B7", "Enzyme Activity Endpoint Assay (purified): Fab′2": 53, "Enzyme Activity Endpoint Assay (purified): Fc": 126, "Enzyme Activity Endpoint Assay (purified): IgG": 25, "Enzyme Activity Endpoint Assay (purified): scIgG": 0}
{"protein": "B8", "Enzyme Activity Endpoint Assay (purified): Fab′2": 34, "Enzyme Activity Endpoint Assay (purified): Fc": 94, "Enzyme Activity Endpoint Assay (purified): IgG": 21, "Enzyme Activity Endpoint Assay (purified): scIgG": 11}
{"protein": "B9", "Enzyme Activity Endpoint Assay (purified): Fab′2": 33, "Enzyme Activity Endpoint Assay (purified): Fc": 104, "Enzyme Activity Endpoint Assay (purified): IgG": 14, "Enzyme Activity Endpoint Assay (purified): scIgG": 17}
{"protein": "B10", "Enzyme Activity Endpoint Assay (purified): Fab′2": 52, "Enzyme Activity Endpoint Assay (purified): Fc": 105, "Enzyme Activity Endpoint Assay (purified): IgG": 28, "Enzyme Activity Endpoint Assay (purified): scIgG": 5}
{"protein": "B11", "Enzyme Activity Endpoint Assay (purified): Fab′2": 12, "Enzyme Activity Endpoint Assay (purified): Fc": 76, "Enzyme Activity Endpoint Assay (purified): IgG": 8, "Enzyme Activity Endpoint Assay (purified): scIgG": 54}
{"protein": "B12", "Enzyme Activity Endpoint Assay (purified): Fab′2": 26, "Enzyme Activity Endpoint Assay (purified): Fc": 73, "Enzyme Activity Endpoint Assay (purified): IgG": 23, "Enzyme Activity Endpoint Assay (purified): scIgG": 27}
{"protein": "B13", "Enzyme Activity Endpoint Assay (purified): Fab′2": 41, "Enzyme Activity Endpoint Assay (purified): Fc": 100, "Enzyme Activity Endpoint Assay (purified): IgG": 14, "Enzyme Activity Endpoint Assay (purified): scIgG": 8}
{"protein": "B14", "Enzyme Activity Endpoint Assay (purified): Fab′2": 15, "Enzyme Activity Endpoint Assay (purified): Fc": 70, "Enzyme Activity Endpoint Assay (purified): IgG": 29, "Enzyme Activity Endpoint Assay (purified): scIgG": 34}
